One assay deals with T1, His6-Human LPL(28-475) (human, UniProt P06858 28-475).
T1 construct: also called N-terminally 6-His tagged LPL
T1 sequence: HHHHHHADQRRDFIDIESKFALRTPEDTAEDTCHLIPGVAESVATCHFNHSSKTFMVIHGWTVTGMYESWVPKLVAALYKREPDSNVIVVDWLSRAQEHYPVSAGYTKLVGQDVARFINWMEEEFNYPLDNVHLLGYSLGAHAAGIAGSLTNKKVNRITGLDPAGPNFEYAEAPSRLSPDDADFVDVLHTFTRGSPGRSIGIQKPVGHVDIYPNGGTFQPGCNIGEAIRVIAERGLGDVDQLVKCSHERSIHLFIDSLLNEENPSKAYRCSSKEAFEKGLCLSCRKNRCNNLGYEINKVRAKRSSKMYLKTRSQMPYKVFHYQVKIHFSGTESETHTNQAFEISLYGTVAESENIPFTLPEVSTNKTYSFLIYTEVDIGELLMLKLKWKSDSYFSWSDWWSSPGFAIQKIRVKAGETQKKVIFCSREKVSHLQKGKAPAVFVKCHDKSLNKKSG
The experiment in a line: Ni-affinity co-purification of untagged GPIHBP1 with N-terminally 6-His tagged LPL (SDS-PAGE), then size exclusion chromatography against MW standards. The text has this: Initially an attempt was made to purify LPL protein by itself. In order to aid this purification, a variety of LPL constructs were synthesized that were either untagged or had N- or C-terminal tags. These LPL constructs were expressed in mammalian cells and purified using heparin chromatography or Ni-affinity chromatography. […] Co-expression of the purified soluble form of GPIHBP1 with LPL protected LPL against spontaneous inactivation (data not shown). GPIHBP1 was then co-expressed with LPL in the presence of LMF1 in the following manner: N-terminally 6-His tagged LPL, untagged GPIHBP1, and LMF1 were co-transfected in a ratio of 3:1:1 into HEK293T cells. The expressed protein complex was captured using Ni-affinity chromatography. […] Importantly, the presence of GPIHBP1 and LMF1 generated an LPL/GPIHBP1 complex that was homogenous and eluted as a ˜75 KDa complex during size exclusion chromatography (FIG. 1, panel C). This agreed well with the predicted molecular weight of a 1:1 LPL/GPHBP1 complex.
(SEC sorts molecules by how far they enter the pores of the column.)

In assay [1] the target is T2, Recombinant human LPL (mature human lipoprotein lipase, amino acids 28-475) (human, UniProt P06858 28-475).
T2 construct: also called LPL alone; hLPL
T2 sequence: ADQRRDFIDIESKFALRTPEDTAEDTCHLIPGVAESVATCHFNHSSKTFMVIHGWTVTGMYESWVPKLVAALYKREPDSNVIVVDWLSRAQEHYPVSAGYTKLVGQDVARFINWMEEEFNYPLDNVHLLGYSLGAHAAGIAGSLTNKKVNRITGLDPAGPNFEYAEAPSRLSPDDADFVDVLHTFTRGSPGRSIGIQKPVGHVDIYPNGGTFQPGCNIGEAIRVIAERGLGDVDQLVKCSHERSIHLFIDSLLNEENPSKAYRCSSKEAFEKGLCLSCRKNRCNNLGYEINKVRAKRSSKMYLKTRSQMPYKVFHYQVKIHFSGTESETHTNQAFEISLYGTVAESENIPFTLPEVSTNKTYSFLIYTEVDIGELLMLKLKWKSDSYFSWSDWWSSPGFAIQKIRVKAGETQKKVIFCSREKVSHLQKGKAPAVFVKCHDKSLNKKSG
The experiment in a line: crystal structure of the complex (data not shown).

Consider one molecule from US20220025344A1 (Novartis, published 2022).

B1: Human soluble GPIHBP1 (aa 21-151) (receptor)
chain: QTQQEEEEEDEDHGPDDYDEEDEDEVEEEETNRLPGGRSRVLLRCYTCKSLPRDERCNLTQNCSHGQTCTTLIAHGNTESGLLTTHSTWCTDSCQPITKTVEGTQVTMTCCQSSLCNVPPWQSSRVQDPTG
notes: also called untagged GPIHBP1; solGPIHBP1
For B1, the binding result (with His6-Human LPL(28-475); in assay [1]) was “binds” throughout.
